Test results as given in patent US20190233493A1 (Sanofi, published 2019).
Blank lines part the entries; values can stand above or below the binder they belong to. *1 amine or outer side, *2 acyl side, *3 side chain or, on linkers, in order; H or OH if unused. Primed or numbered codes have the meaning given here. Side-chain parts run from the residue outwards. [ ]: non-standard residue; d: D form. The star is where a group is joined. TTDS = 4-[3-[2-[2-(3-aminopropoxy)ethoxy]ethoxy]propylamino]-4-oxo-butanoyl, O=C(CCC(=O)[*:2])NCCCOCCOCCOCCCN[*:1]; TTDS″ = 4-[3-[2-[2-(3-aminopropoxy)ethoxy]ethoxy]propylamino]-4-oxo-butanoyl; TtdDga = O=C(COCC(=O)[*:2])NCCCOCCOCCOCCCN[*:1]; γGlu = O=C(O)[C@H](CCC(=O)[*:2])N[*:1]; Pentadecanoyl = CCCCCCCCCCCCCCC(=O)*; Stearoyl = CCCCCCCCCCCCCCCCCC(=O)*; Palmitoyl = CCCCCCCCCCCCCCCC(=O)*; Myristoyl = CCCCCCCCCCCCCC(=O)*; αMeK = C[C@](N)(CCCCN)C(=O)O; Nle = CCCC[C@H](N)C(=O)O; PEG2′ = PEG2 spacer unit; Aib = CC(C)(N)C(=O)O

Molecular target: T1, RXFP1 receptor (UniProt Q9HBX9 1-757, limits assumed)
T1 sequence (looked up): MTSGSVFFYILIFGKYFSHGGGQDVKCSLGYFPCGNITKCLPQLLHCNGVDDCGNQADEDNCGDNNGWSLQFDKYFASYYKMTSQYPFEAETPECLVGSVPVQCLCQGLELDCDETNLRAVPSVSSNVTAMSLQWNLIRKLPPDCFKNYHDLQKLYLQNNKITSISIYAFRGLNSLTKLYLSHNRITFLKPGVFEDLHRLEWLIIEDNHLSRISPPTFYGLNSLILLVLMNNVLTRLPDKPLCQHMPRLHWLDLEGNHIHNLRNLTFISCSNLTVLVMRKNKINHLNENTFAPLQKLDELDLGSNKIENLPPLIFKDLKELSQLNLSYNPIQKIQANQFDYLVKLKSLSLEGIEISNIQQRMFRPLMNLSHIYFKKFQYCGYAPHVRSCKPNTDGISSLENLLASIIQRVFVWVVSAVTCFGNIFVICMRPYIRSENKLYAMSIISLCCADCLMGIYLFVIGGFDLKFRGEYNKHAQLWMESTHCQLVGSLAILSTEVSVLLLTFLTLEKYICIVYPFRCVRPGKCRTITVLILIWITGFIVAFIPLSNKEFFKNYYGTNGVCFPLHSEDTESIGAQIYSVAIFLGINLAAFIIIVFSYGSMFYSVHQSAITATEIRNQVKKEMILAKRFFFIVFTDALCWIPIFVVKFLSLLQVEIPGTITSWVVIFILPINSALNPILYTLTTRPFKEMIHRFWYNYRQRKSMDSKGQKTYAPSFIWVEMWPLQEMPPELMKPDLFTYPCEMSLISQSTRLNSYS
Assay: cell-based or functional assay

B2: peptide of SEQ ID NO: 20 (peptide)
peptide: Ac-LEGREKVRAK(Ac)I[Aib][Aib]EG[Nle]STWS[Aib]RKK(Ac)[TtdDga][TtdDga][TtdDga]K([γGlu-γGlu-γGlu-Stearoyl])-NH2
SMILES: CCCCCCCCCCCCCCCCCC(=O)N[C@@H](CCC(=O)N[C@@H](CCC(=O)N[C@@H](CCC(=O)NCCCC[C@H](NC(=O)COCC(=O)NCCCOCCOCCOCCCNC(=O)COCC(=O)NCCCOCCOCCOCCCNC(=O)COCC(=O)NCCCOCCOCCOCCCNC(=O)[C@H](CCCCNC(C)=O)NC(=O)[C@H](CCCCN)NC(=O)[C@H](CCCNC(=N)N)NC(=O)C(C)(C)NC(=O)[C@H](CO)NC(=O)[C@H](Cc1c[nH]c2ccccc12)NC(=O)[C@@H](NC(=O)[C@H](CO)NC(=O)[C@H](CCCC)NC(=O)CNC(=O)[C@H](CCC(=O)O)NC(=O)C(C)(C)NC(=O)C(C)(C)NC(=O)[C@@H](NC(=O)[C@H](CCCCNC(C)=O)NC(=O)[C@H](C)NC(=O)[C@H](CCCNC(=N)N)NC(=O)[C@@H](NC(=O)[C@H](CCCCN)NC(=O)[C@H](CCC(=O)O)NC(=O)[C@H](CCCNC(=N)N)NC(=O)CNC(=O)[C@H](CCC(=O)O)NC(=O)[C@H](CC(C)C)NC(C)=O)C(C)C)[C@@H](C)CC)[C@@H](C)O)C(N)=O)C(=O)O)C(=O)O)C(=O)O
- EC50 (nM), OVCAR 5 cells (cAMP): 0.45 nM
- EMax, OVCAR 5 cells (cAMP): 88%

Binder: Ac-LEGREKVRAK(Ac)I[Aib][Aib]EGQSTFS[αMeK]RAK(Ac)[PEG2′][PEG2′][PEG2′][PEG2′][γGlu][γGlu]K([γGlu-γGlu-Palmitoyl])-NH2 [peptide of SEQ ID NO: 185]
- EC50 (nM), OVCAR 5 cells (cAMP): 0.05 nM
- EMax, OVCAR 5 cells (cAMP): 100%

Binder: Ac-LEGREKVRAK(Ac)I[Aib][Aib]EG[Nle]STFS[αMeK]RAK(Ac)K([TTDS″-TTDS″-TTDS″-γGlu-γGlu-γGlu-Palmitoyl])-NH2 [peptide of SEQ ID NO: 183]
- EC50 (nM), OVCAR 5 cells (cAMP): 0.08 nM
- EMax, OVCAR 5 cells (cAMP): 94%

B4: peptide of SEQ ID NO: 19 (peptide)
peptide: Ac-LEGREKVRAK(Ac)I[Aib][Aib]EG[Nle]STWS[Aib]RKK(Ac)[TtdDga][TtdDga]K([γGlu-γGlu-γGlu-Stearoyl])-NH2
SMILES: CCCCCCCCCCCCCCCCCC(=O)N[C@@H](CCC(=O)N[C@@H](CCC(=O)N[C@@H](CCC(=O)NCCCC[C@H](NC(=O)COCC(=O)NCCCOCCOCCOCCCNC(=O)COCC(=O)NCCCOCCOCCOCCCNC(=O)[C@H](CCCCNC(C)=O)NC(=O)[C@H](CCCCN)NC(=O)[C@H](CCCNC(=N)N)NC(=O)C(C)(C)NC(=O)[C@H](CO)NC(=O)[C@H](Cc1c[nH]c2ccccc12)NC(=O)[C@@H](NC(=O)[C@H](CO)NC(=O)[C@H](CCCC)NC(=O)CNC(=O)[C@H](CCC(=O)O)NC(=O)C(C)(C)NC(=O)C(C)(C)NC(=O)[C@@H](NC(=O)[C@H](CCCCNC(C)=O)NC(=O)[C@H](C)NC(=O)[C@H](CCCNC(=N)N)NC(=O)[C@@H](NC(=O)[C@H](CCCCN)NC(=O)[C@H](CCC(=O)O)NC(=O)[C@H](CCCNC(=N)N)NC(=O)CNC(=O)[C@H](CCC(=O)O)NC(=O)[C@H](CC(C)C)NC(C)=O)C(C)C)[C@@H](C)CC)[C@@H](C)O)C(N)=O)C(=O)O)C(=O)O)C(=O)O
- EC50 (nM), OVCAR 5 cells (cAMP): 0.15 nM
- EMax, OVCAR 5 cells (cAMP): 96%

Binder: Ac-LEGREKVRAK(Ac)I[Aib][Aib]EGQSTFS[αMeK]RAK(Ac)[PEG2′][PEG2′][PEG2′][PEG2′][γGlu][γGlu]K([γGlu-γGlu-Pentadecanoyl])-NH2 [peptide of SEQ ID NO: 186]
- EC50 (nM), OVCAR 5 cells (cAMP): 0.18 nM
- EMax, OVCAR 5 cells (cAMP): 100%

More lines, now with the values ahead:

- EC50 (nM), OVCAR 5 cells (cAMP): 0.75 nM
- EMax, OVCAR 5 cells (cAMP): 100%
B1: peptide of SEQ ID NO: 188 (peptide)
peptide: Ac-LEGREKVRAK(Ac)I[Aib][Aib]EG[Nle]STFS[αMeK]RAK(Ac)[TTDS][TTDS][TTDS]K([γGlu-γGlu-γGlu-Pentadecanoyl])-NH2
SMILES: CCCCCCCCCCCCCCC(=O)N[C@@H](CCC(=O)N[C@@H](CCC(=O)N[C@@H](CCC(=O)NCCCC[C@H](NC(=O)CCC(=O)NCCCOCCOCCOCCCNC(=O)CCC(=O)NCCCOCCOCCOCCCNC(=O)CCC(=O)NCCCOCCOCCOCCCNC(=O)[C@H](CCCCNC(C)=O)NC(=O)[C@H](C)NC(=O)[C@H](CCCNC(=N)N)NC(=O)[C@](C)(CCCCN)NC(=O)[C@H](CO)NC(=O)[C@H](Cc1ccccc1)NC(=O)[C@@H](NC(=O)[C@H](CO)NC(=O)[C@H](CCCC)NC(=O)CNC(=O)[C@H](CCC(=O)O)NC(=O)C(C)(C)NC(=O)C(C)(C)NC(=O)[C@@H](NC(=O)[C@H](CCCCNC(C)=O)NC(=O)[C@H](C)NC(=O)[C@H](CCCNC(=N)N)NC(=O)[C@@H](NC(=O)[C@H](CCCCN)NC(=O)[C@H](CCC(=O)O)NC(=O)[C@H](CCCNC(=N)N)NC(=O)CNC(=O)[C@H](CCC(=O)O)NC(=O)[C@H](CC(C)C)NC(C)=O)C(C)C)[C@@H](C)CC)[C@@H](C)O)C(N)=O)C(=O)O)C(=O)O)C(=O)O

- EC50 (nM), OVCAR 5 cells (cAMP): 1.29 nM
- EMax, OVCAR 5 cells (cAMP): 93%
Binder: Ac-LEGREKVRAK(Ac)I[Aib][Aib]EGQSTFS[αMeK]RAK(Ac)[PEG2′][PEG2′][PEG2′][PEG2′]K([γGlu-γGlu-γGlu-γGlu-Myristoyl])-NH2 [peptide of SEQ ID NO: 190]

- EC50 (nM), OVCAR 5 cells (cAMP): 0.62 nM
- EMax, OVCAR 5 cells (cAMP): 91%
Binder: Ac-LEGREKVRAK(Ac)I[Aib][Aib]EG[Nle]STFS[αMeK]RAK(Ac)[PEG2′][PEG2′][PEG2′][PEG2′]K([γGlu-γGlu-γGlu-Palmitoyl])-NH2 [peptide of SEQ ID NO: 192]

- EC50 (nM), OVCAR 5 cells (cAMP): 0.33 nM
- EMax, OVCAR 5 cells (cAMP): 100%
B3: peptide of SEQ ID NO: 187 (peptide)
peptide: Ac-LEGREKVRAK(Ac)I[Aib][Aib]EG[Nle]STFS[αMeK]RAK(Ac)[TTDS][TTDS][TTDS]K([γGlu-γGlu-γGlu-Palmitoyl])-NH2
SMILES: CCCCCCCCCCCCCCCC(=O)N[C@@H](CCC(=O)N[C@@H](CCC(=O)N[C@@H](CCC(=O)NCCCC[C@H](NC(=O)CCC(=O)NCCCOCCOCCOCCCNC(=O)CCC(=O)NCCCOCCOCCOCCCNC(=O)CCC(=O)NCCCOCCOCCOCCCNC(=O)[C@H](CCCCNC(C)=O)NC(=O)[C@H](C)NC(=O)[C@H](CCCNC(=N)N)NC(=O)[C@](C)(CCCCN)NC(=O)[C@H](CO)NC(=O)[C@H](Cc1ccccc1)NC(=O)[C@@H](NC(=O)[C@H](CO)NC(=O)[C@H](CCCC)NC(=O)CNC(=O)[C@H](CCC(=O)O)NC(=O)C(C)(C)NC(=O)C(C)(C)NC(=O)[C@@H](NC(=O)[C@H](CCCCNC(C)=O)NC(=O)[C@H](C)NC(=O)[C@H](CCCNC(=N)N)NC(=O)[C@@H](NC(=O)[C@H](CCCCN)NC(=O)[C@H](CCC(=O)O)NC(=O)[C@H](CCCNC(=N)N)NC(=O)CNC(=O)[C@H](CCC(=O)O)NC(=O)[C@H](CC(C)C)NC(C)=O)C(C)C)[C@@H](C)CC)[C@@H](C)O)C(N)=O)C(=O)O)C(=O)O)C(=O)O

- EC50 (nM), OVCAR 5 cells (cAMP): 0.42 nM
- EMax, OVCAR 5 cells (cAMP): 100%
Binder: Ac-LEGREKVRAK(Ac)I[Aib][Aib]EGQSTFS[αMeK]RAK(Ac)K([TTDS″-TTDS″-TTDS″-γGlu-γGlu-γGlu-Pentadecanoyl])-NH2 [peptide of SEQ ID NO: 189]

- EC50 (nM), OVCAR 5 cells (cAMP): 0.17 nM
- EMax, OVCAR 5 cells (cAMP): 93%
Binder: Ac-LEGREKVRAK(Ac)I[Aib][Aib]EGQSTFS[αMeK]RAK(Ac)K([PEG2′-PEG2′-PEG2′-PEG2′-γGlu-γGlu-γGlu-γGlu-Palmitoyl])-NH2 [peptide of SEQ ID NO: 191]
